The target of test [1] is T1, hDlk-1 EGF-like motif deletion construct EGF (4-6) expressed on COS-7 cells (human, UniProt P80370 131-244).
T1 construct: also called hDlk (EGF 4-6)-pME18-CHFX; hdlk-EGF (4-6)/pME18S-CFHX
T1 sequence: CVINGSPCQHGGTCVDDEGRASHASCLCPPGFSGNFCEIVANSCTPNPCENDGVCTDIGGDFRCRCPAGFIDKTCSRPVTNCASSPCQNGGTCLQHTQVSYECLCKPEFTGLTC
As to the kind of experiment: FACS and immunostaining of transfected COS-7 cells. From the text: (§1) Each of expression vectors hDlk (EGF 1-2)-pME-CHFX, hDlk (EGF 1-3)-pME-CHFX, hDlk (EGF 3-4)-pME-CHFX, hDlk (EGF 4-6)-pME18-CHFX and hDlk (EGF 5-6)-pME18-CHFX (FIG. 7) was introduced into COS-7 cells and they were then subjected to FACS analysis and the immunostaining of Cytospin specimens, so as to examine sites in a region containing 6 EGF-like motifs existing in the FA-1 region (extracellular region) of hDlk-1, which were recognized by each anti-hDlk-1 monoclonal antibody.
(§2) It has been reported that, among mouse IgG isotypes, IgG2a and IgG2b have strong antibody-dependent cytotoxic activity (ADCC) and that the ADCC of IgG1 is low (please refer to Kipps, T. J. et al., 1985). The isotype of the clone DI-2-14 is mouse IgG1.

Test [2] has as its target T2, hDlk-1 EGF-like motif deletion construct EGF (5-6) expressed on COS-7 cells (human, UniProt P80370 170-383).
T2 construct: also called hDlk (EGF 5-6)-pME18-CHFX
T2 sequence: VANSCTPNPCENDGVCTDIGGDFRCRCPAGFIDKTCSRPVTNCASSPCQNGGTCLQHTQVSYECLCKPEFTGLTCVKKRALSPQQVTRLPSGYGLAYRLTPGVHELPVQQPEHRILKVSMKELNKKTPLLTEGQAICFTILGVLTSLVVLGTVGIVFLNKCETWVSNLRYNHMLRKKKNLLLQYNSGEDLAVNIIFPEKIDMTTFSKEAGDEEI
As to the kind of experiment: FACS and immunostaining of transfected COS-7 cells.
Text: as §1, §2

In test [3] the target is T3, purified recombinant hFA-1 protein (hDlk-1 extracellular region, FA-1) (human, UniProt P80370 24-303).
T3 construct: also called human FA1; purified FA-1; not shown: C-terminal Myc tag and His tag from vector pcDNA4/Myc-His
T3 sequence: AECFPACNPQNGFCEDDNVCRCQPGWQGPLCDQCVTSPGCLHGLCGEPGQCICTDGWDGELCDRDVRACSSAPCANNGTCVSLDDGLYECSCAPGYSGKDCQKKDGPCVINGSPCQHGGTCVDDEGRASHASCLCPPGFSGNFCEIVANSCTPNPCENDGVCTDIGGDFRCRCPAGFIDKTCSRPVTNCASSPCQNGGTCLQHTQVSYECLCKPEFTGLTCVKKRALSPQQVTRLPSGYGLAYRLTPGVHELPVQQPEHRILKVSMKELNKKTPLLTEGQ
Kind of test: ELISA, purified recombinant hFA-1 (0.5 to 1 µg/mL) immobilized, antibody dilution series. As for the experimental part: ELISA was carried out in the same manner as described in Example 1, using an ELISA plate on which the purified recombinant hFA-1 protein (0.5 to 1 μg/mL) had been immobilized. Specifically, the ELISA plate was washed with a washing buffer 3 times and it was then blocked using a blocking solution at room temperature for 1 hour (or at 4° C. overnight). Thereafter, the plate was washed with a washing buffer 2 times and a mouse DI-2-14 antibody and a ChDI-2-14 antibody, wherein dilution series were produced using an ELISA buffer, were added to the plate, so that they were allowed to react (at 4° C. overnight). Thereafter, the plate was washed with a washing buffer 3 times and it was then allowed to react with HRP-labeled anti-mouse IgG (final concentration: 1 μg/mL) or HRP-labeled anti-human IgG (final concentration: 1 μg/mL) (both products manufactured by GE Healthcare), which had been diluted with a blocking solution.
For orientation: In an ELISA, binding on a coated surface is turned into a signal by an enzyme label.

The target in test [4] is T3, purified recombinant hFA-1 protein …. Kind of test: ELISA method of Djavadi-Ohaniance: antibody (0.5 nM) equilibrated with hFA-1 (3.125-50 nM), then added to an hFA-1-coated plate. The method, then:
Specifically, the purified recombinant hFA-1 protein (1 μg/mL) was added to a 96-well culture plate (Corning) to fix as an antigen (at room temperature for 1 hour). Subsequently, the plate was washed with PBS 3 times and 2% skim milk (PBS solution) was added thereto for blocking (at room temperature for 1 hour). After the plate had been washed with PBS 2 times, an antigen-antibody complex formed by previously mixing an antigen solution (a purified hFA-1 protein; 50, 25, 12.5, 6.25 and 3.125 nM) with each clone of the anti-hDlk-1 monoclonal antibody (0.5 nM) and then equilibrating the mixture was added to the aforementioned ELISA plate for a reaction (at room temperature for 1 hour). After the plate had been washed with PBS 3 times, it was allowed to react with HRP-labeled anti-mouse IgG (final concentration: 1 μg/mL) or HRP-labeled anti-rat IgG (final concentration: 1 μg/mL) (both of which were available from GE Healthcare Biosciences), which had been diluted with a blocking solution, at room temperature for 1 hour.
Subsequently, the affinity (dissociation constant) of these clones for an antigen was calculated by the aforementioned ELISA method. […] The affinity of the clone 2-13 for the purified recombinant hFA-1 was not high and thus the Kd value thereof could not be calculated by the aforementioned method.

B1: anti-hDlk-1 monoclonal antibody clone DI-2-14 (mouse IgG1) (antibody, V domains shown)
VH: EVQLQQSGAELVKPGASVKLSCTASGFNIRDTYIHWVKQRPEQGLEWIGRIDPPNGNLKYDPKFQGKATITADTSSNTAYLQFSSLTSEDTAVYYCARSDGYSFAYWGQGTLVTVSA
VL: DIVMTQAAPSVPVTPGESVSISCRSSKSLLHSNGNTYLYWFLQRPGQSPQLLIYRMSNLASGVPDRFSGSGSGTAFTLRISRVEAEDVGVYYCMQHVEYPFTFGSGTKLEIK
notes: also called mouse DI-2-14; mouse DI-2-14 antibody
With B1, the binding result in test [1] and in test [2] was “no binding” in each case. In test [3], the EC50 – broadly, the concentration at which the effect is half-maximal – worked out at 0.01 µg/mL. The Kd (usually the free concentration of one partner at which half of the binding sites on the other are occupied at equilibrium, for simple one-to-one binding) in test [4] was found to be 9.26 nM.

B2: chimeric DI-2-14 antibody (ChDI-2-14), mouse-human chimeric DI-2-14 IgG1/K (antibody, V domains shown)
VH: EVQLQQSGAELVKPGASVKLSCTASGFNIRDTYIHWVKQRPEQGLEWIGRIDPPNGNLKYDPKFQGKATITADTSSNTAYLQFSSLTSEDTAVYYCARSDGYSFAYWGQGTLVTVSA
VL: DIVMTQAAPSVPVTPGESVSISCRSSKSLLHSNGNTYLYWFLQRPGQSPQLLIYRMSNLASGVPDRFSGSGSGTAFTLRISRVEAEDVGVYYCMQHVEYPFTFGSGTKLEIK
notes: domain: human γ1 heavy chain constant region; not shown: human kappa chain constant region (CL) of vector pChDI-2-14
For B2, the EC50 in test [3] came out at 0.01 µg/mL.
